Here are results for three molecules from US20150025225A1 (SHIONOGI, published 2015).

Read-outs that look alike come from different tables or passages of the source.

In experiment [1] the target is T1, rabbit EL-C2 tag (rabbit).
T1 chain: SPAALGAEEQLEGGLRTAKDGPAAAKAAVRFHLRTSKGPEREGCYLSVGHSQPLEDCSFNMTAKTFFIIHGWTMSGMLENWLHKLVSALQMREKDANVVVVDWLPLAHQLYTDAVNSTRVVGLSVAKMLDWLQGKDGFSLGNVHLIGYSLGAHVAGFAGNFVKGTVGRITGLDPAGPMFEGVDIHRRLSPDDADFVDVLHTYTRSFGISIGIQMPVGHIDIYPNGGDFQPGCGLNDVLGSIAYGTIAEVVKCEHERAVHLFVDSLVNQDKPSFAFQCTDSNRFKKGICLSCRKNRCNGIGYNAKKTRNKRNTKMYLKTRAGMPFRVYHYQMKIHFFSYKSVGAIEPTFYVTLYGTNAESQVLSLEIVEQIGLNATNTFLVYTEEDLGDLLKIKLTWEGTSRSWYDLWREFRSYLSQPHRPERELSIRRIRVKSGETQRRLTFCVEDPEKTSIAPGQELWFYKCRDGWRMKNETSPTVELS
The experiment is described as follows: cell-based or functional assay.

For experiment [2], the target named is T2, cynomolgus monkey EL-C2 tag (cynomolgus monkey, UniProt Q9Y5X9 21-500 (human entry), limits assumed).
T2 chain: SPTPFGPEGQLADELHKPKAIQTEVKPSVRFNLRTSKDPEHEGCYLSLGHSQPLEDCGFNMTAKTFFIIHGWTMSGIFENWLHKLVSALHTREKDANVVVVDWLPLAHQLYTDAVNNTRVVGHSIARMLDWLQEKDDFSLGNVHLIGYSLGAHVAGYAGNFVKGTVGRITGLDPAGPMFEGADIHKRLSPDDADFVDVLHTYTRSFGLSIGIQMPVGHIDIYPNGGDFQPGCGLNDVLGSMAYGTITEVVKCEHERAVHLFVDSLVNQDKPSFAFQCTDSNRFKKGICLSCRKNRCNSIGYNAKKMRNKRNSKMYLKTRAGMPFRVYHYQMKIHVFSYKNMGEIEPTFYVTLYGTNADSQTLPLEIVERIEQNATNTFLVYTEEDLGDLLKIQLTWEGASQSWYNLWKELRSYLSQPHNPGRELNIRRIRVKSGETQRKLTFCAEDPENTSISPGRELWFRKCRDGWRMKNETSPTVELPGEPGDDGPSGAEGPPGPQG
The experiment in a line: cell-based or functional assay.

Experiment [3] addresses T3, Baboon EL-C2 tag (baboon, UniProt Q9Y5X9 21-500 (human entry), limits assumed).
T3 chain: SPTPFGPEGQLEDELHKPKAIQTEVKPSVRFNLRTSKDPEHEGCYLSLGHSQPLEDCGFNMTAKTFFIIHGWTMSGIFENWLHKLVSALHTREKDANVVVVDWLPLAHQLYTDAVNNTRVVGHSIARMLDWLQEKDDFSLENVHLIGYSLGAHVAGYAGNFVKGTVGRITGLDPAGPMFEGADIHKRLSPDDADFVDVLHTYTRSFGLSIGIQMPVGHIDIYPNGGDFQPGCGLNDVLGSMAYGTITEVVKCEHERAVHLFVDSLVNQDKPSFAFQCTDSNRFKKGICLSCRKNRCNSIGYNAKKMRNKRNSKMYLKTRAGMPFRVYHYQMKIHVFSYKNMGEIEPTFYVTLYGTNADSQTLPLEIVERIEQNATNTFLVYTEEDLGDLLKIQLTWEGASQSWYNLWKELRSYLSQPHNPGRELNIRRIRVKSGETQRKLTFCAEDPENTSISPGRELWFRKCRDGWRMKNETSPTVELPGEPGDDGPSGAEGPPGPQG
The experiment in a line: cell-based or functional assay.

Experiment [4] deals with T4, human EL[331-459]-mouse EL-C2 tag (human/mouse chimera, UniProt Q9WVG5 21-500 (mouse entry)).
T4 chain: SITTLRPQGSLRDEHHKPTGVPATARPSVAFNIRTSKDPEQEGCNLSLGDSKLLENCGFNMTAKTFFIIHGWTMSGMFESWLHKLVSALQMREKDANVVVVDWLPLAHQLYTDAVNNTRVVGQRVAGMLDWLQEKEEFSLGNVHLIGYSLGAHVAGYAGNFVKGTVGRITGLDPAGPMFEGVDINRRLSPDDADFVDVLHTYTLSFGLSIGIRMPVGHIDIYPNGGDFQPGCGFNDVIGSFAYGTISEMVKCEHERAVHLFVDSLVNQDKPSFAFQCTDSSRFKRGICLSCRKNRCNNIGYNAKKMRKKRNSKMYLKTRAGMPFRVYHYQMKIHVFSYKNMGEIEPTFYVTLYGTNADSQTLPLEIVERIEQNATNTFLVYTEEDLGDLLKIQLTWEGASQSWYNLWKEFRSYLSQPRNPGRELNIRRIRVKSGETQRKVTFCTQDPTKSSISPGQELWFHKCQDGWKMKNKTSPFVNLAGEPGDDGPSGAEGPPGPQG
The experiment is described as follows: cell-based or functional assay.

Experiment [5] deals with T2, cynomolgus monkey EL-C2 tag. The experiment in a line: Biacore SPR; EL captured by anti-C2-tag antibody, antibody as analyte, bivalent fit; column head prints nM, kd/ka gives M. The protocol:
(§1) The binding affinities of anti-EL antibodies were measured using Biacore. Anti-C2-tag antibody was immobilized on a sensor chip CM5 (GE HealthCare) using amine-coupling and baboon EL heparin extract or cynomolgus monkey heparin extract diluted with HBS-P (GE Healthcare) was added and EL were captured on the sensor chip. Then anti-EL antibodies diluted with HBS-P were added and the binding affinities were calculated by bivalent fitting of BIAevaluation software (FIG. 9A-G).

Experiment [6] concerns the target T3, Baboon EL-C2 tag. Described as above. The procedure:
as §1

Experiment [7] deals with T2, cynomolgus monkey EL-C2 tag. The experiment in a line: Biacore SPR; EL heparin extract captured by anti-C2-tag antibody on CM5, antibody as analyte, bivalent fit. The protocol: as §1
In experiment [8] the target is T3, Baboon EL-C2 tag. The description is as above. The procedure:
as §1

Experiment [9] addresses T5, human EL-411-459 fragment (human).
T5 construct: Used as HEK293 lysate
T5 chain: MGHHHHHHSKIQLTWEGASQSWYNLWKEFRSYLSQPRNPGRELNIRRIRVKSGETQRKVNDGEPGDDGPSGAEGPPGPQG
The experiment is described as follows: sandwich ELISA with human EL fragment lysate, as Example 10.

In experiment [10] the target is T1, rabbit EL-C2 tag. The experiment in a line: ELISA-type titration, A450 against antibody concentration; protocol not described in the text. (In general: An ELISA detects its analyte on a solid surface through an enzyme-linked reagent.)
The target of experiment [11] is T2, cynomolgus monkey EL-C2 tag. The experiment is described as above.
Experiment [12] has as its target T3, Baboon EL-C2 tag. The description is as above.
In experiment [13] the target is T4, human EL[331-459]-mouse EL-C2 tag. The experiment is described as above.
Experiment [14] concerns the target T1, rabbit EL-C2 tag. Described as above.
Experiment [15] deals with T2, cynomolgus monkey EL-C2 tag. The experiment is described as above.
Experiment [16] deals with T1, rabbit EL-C2 tag. Described as above.
Experiment [17] concerns the target T2, cynomolgus monkey EL-C2 tag. Described as above.
The target of experiment [18] is T3, Baboon EL-C2 tag. The experiment is described as above.

B1: 25E4 antibody (antibody, IgG2b, V domains shown)
VH: QVALKESGPGILQPSQTLSLTCSFSGFSLSTSGMGVGWIRQPSGKGLEWLAHIWWHGNKYYSTALKSRLTISKDTSNNQVFLKIASVDTADTATYYCARISDGYPLDYWGQGTSVTVSS
VL: DIQMTQSPSSLSASLGGKVTITCKASQDINKYIVWYQQKPGKGPRLLIHYTSTLQPGFPSRFSGSGSGRDYSLSITNLEPEDIATYYCLQYDNLLWTFGGGTKLEIK
The koff is the first-order rate constant of dissociation. One may read the kon as a measure of how fast the partners come together. As usually defined, the EC50 (read off the curve) is the concentration that produces a half-maximal response. Consider B1, for which the “Neutralizing activity_IC50” value in the experiment with rabbit EL-C2 tag [1] amounted to 85 nM; in experiment [2] it was 4.2 nM; with Baboon EL-C2 tag [3] it was 5.7 nM; in experiment [4] it was 6.9 nM. Also, the Kd is 0.59 nM in experiment [5] and 0.64 nM with Baboon EL-C2 tag [6]. In addition, the koff in experiment [7] turned out to be 9.4e-05 s⁻¹; with Baboon EL-C2 tag [8], 0.00016 s⁻¹. Also, the kon is 160000 M⁻¹ s⁻¹ in experiment [7] and 250000 M⁻¹ s⁻¹ with Baboon EL-C2 tag [8]. Besides, the binding result in experiment [9] is given as “no binding”. In addition, the “EC50 (read off the curve)” value with rabbit EL-C2 tag [10] is roughly 10 ng/mL; in [11], roughly 7 ng/mL; with Baboon EL-C2 tag [12] it was roughly 20 ng/mL; in [13], roughly 20 ng/mL.

B2: 16A11 antibody (antibody, IgG1, V domains shown)
VH: QVTLKESGPGILQPSQTLSLTCSFSGFSLSTSGMGVGWVRQPSGKGLEWLAHIWWNDYYYYKTALKSRLTISKDTSNNQVFLKIASVDTVDTATYYCARMAPGTPFPSWGQGTLVTVSA
VL: DIQMTQSPSSLSASLGGKVTITCKASQDINRYIAWYQHKPGKGPRLLIHYTSTLQPGIPSRFSGSGSGRDYSFSISNLEPEDIATYYCLQYDILLWTFGGGTKLEIK
Consider B2, for which the “Neutralizing activity_IC50” value with rabbit EL-C2 tag [1] is 69 nM; in experiment [2] it was 6.2 nM; with Baboon EL-C2 tag [3], 6.2 nM; in experiment [4], 6.1 nM. Further, the Kd in [5] amounted to 2.8 nM; with Baboon EL-C2 tag [6] it was 1 nM. Besides, the concentration giving a half-maximal response (EC50 (read off the curve)) in the experiment with rabbit EL-C2 tag [14] was roughly 40 ng/mL; in experiment [15], roughly 20 ng/mL. The koff worked out at 0.00039 s⁻¹ in experiment [7] and 0.00012 s⁻¹ with Baboon EL-C2 tag [8]. For the same molecule, the kon turned out to be 140000 M⁻¹ s⁻¹ in experiment [7] and 120000 M⁻¹ s⁻¹ in the experiment with Baboon EL-C2 tag [8]. The binding result in experiment [9] is given as “binds”.

B3: 8F5 antibody (antibody, IgG2a, V domains shown)
VH: QVTLKESGPGILQPSQTLSLTCSFSGFSLSTSNMGVGWIRQPSGKGLEWLAHIWWNDYKYYNTALKSRLTISKDTSNNQVFLKIASLDTADTATYYCARIGGGTPLDYWGQGTSLTVSS
VL: DIQMAQSPSSLSASLGGKVTITCKASQDIHTYIAWYQHKPGKGPRLLMLYTSTLQPGIPSRFSGSGSGRDYSFSISNLEPEDIATYYCLQYDDLLWTFGGGTKLEIK
On to B3, for which the “Neutralizing activity_IC50” value with rabbit EL-C2 tag [1] turned out to be 98 nM; in [2] it was 3 nM; with Baboon EL-C2 tag [3], 4.8 nM. The Kd is 1 nM in [5] and roughly 1.5 nM with Baboon EL-C2 tag [6]. In addition, the figures for the koff (in experiment [7]; with Baboon EL-C2 tag [8]) were 0.00014 s⁻¹ and 0.00021 s⁻¹, respectively. Moreover, the kon (in experiment [7]; with Baboon EL-C2 tag [8]) was 140000 M⁻¹ s⁻¹ each time. The “EC50 (read off the curve)” value was roughly 10 ng/mL with rabbit EL-C2 tag [16], roughly 5 ng/mL in experiment [17] and roughly 10 ng/mL with Baboon EL-C2 tag [18].
